One assay concerns Bv8 expression. Description: Regulation of Bv8 gene expression in cultured mouse BMMNCs (Taqman). The assay is classed as cell-based. The following applies: for stimulation of Bv8 expression in CD11b+Gr1+ cells: 20 pg/ml G-CSF, 4 hrs. The protocol: RNA from tissues or cells was prepared using the RNeasy Mini Kit® (Qiagen). 50 ng total RNA per reaction was used for the real time PCR (Taqman™) analysis. For mouse/human Bv8 and EG-VEGF/Bv8 receptor 1 (PKR-1/EG-VEGFR1, R-1), testis RNA (BD Biosciences) served as control. For mouse/human EG-VEGF/Bv8 receptor 2 (PKR-2/EG-VEGFR2, R2), hypothalamus or whole brain (BD Biosciences) served as the control tissues. Reactions were run on 9600 Emulation mode of 7500 Real […] time PCR system (Applied Biosystems) and the absolute quantification with standard curve was used with Sequence Detection System (SDS) software. The expression level of each gene was further quantified against the house-keeping gene RPL19 in the same sample. To confirm the expression of VEGFR-1, VEGFR-2, EG-VEGF/Bv8 R1 and EG-VEGF/Bv8 R2 in the tumor-associated endothelial cells, standard RT-PCR was conducted using the Titan One Tube™ RT-PCR system (Roche) and the end products were checked on 2% agarose gel (Invitrogen) for the correct size. The sequence of Taqman™ primers are as follows: […]
Recombinant mouse MCP-1, MIP-1α, MIP-1β, MIP-2, bFGF, VEGF, GM-CSF, G-CSF, SDF-1 and TNFα were purchased from R&D Systems (Minneapolis, Minn.). Recombinant mouse KC, IFNγ, Bv8 (Prokineticin-2), IL-4, IL-10, IL-13, TGF-β were from PeproTech Inc. (Rocky Hill, N.J.). […] Conditioned media at 1:3 dilution were used (final FBS concentration was 0.17%). Data were normalized against total cell number. BM cells were flushed from mouse leg bones with DMEM containing 10% FBS. Cells were centrifuged at 1200 rpm for 5 min and resuspended in HBSS media containing 0.2% BSA (low endotoxin, Serologicals Corp. Norcross, Ga.). Two million cells were incubated in 24-well plates with various cytokines for 4 hr at 37° C. in a 5% CO2 incubator. Cells were then transferred in eppendorf tubes, centrifuged and lysed by RNA lysis buffer (Qiagen, Valencia, Calif.). Bv8 expression was assessed by Taqman™ with RPL19 (Ribosomal Protein L19) as the internal control gene. In some cases, CD11b+Gr1+ or CD11b−Gr1− BM cells were obtained using FACS sorting.

A further assay deals with Bv8 protein levels. As to the kind of experiment: In vivo G-CSF administration, Bv8 protein levels (ELISA). On the set-up: species or system mouse. The procedure:
Eight weeks old Balb/c mice were subcutaneously injected with 10 μg recombinant human G-CSF (Neupogen, Amgen) daily for eight consecutive days. Control animals were given PBS. At the end of study, BM, whole blood and spleen samples were taken for analysis. One group of animals was maintained for two days after G-CSF discontinuation. Neutrophil count was done using an automated, high-resolution, flow cytometry-based hematology analyzer (CellDyn 3000). Serum and BM Bv8 levels were measured by ELISA.
MaxiSorp® 96-well microwell plates (Nalge Nunc International, Rochester, N.Y.) were coated with […] 3F1 antibody (a mouse anti-human BV8 antibody, which also binds to mouse Bv8 in 50 mM carbonate buffer, pH 9.6, at 4° C. overnight. Plates were washed with PBS containing 0.05% polysorbate 20 and blocked with 0.5% bovine serum albumin, 10 ppm Proclin 300™ (Supelco, Bellefonte, Pa.) in PBS at room temperature for 1 h. After plates were washed, mouse BV8 standards (0.039-2.50 ng/ml in 2-fold serial dilution, Genentech) and samples (minimum 1:10 dilution) in PBS containing 0.5% bovine serum albumin, 0.05% polysorbate 20, 10 ppm Proclin 300® (Supelco, Bellefonte, Pa.) and 0.35N NaCl (sample buffer) were added to the plates. The plates were incubated for 2 h at room temperature. Unbound antibody was removed by a wash step. Antibody bound to the plates was detected by adding biotinylated 4E10 antibody (a hamster anti-mouse BV8 antibody, Genentech) followed by streptavidin-HRP (GE Healthcare, Buckinghamshire, United Kingdom) and 3,3′,5,5′-tetramethyl benzidine (Kirkegaard & Perry Laboratories, Gaithersburg, Md.) as the substrate. The reaction was stopped by adding 1 M phosphoric acid. Absorbance was read at 450 nm on a Titertek™ stacker reader (ICN, Costa Mesa, Calif.). The titration curves of the standards were fit using a four-parameter regression curve-fitting program (Genentech). Data points which fell in the range of the standard curve were used for calculating the mouse BV8 concentrations in samples.
(In general: An ELISA detects its analyte on a solid surface through an enzyme-linked reagent.)

The next assay relates to human neutrophils. Description: Chemotaxis of peripheral blood neutrophils. It counts as cell-based. The protocol: 10^6 cells were washed with HBSS containing 0.2% BSA before putting into transwell insert with 5 μm pore size (Corning Incorporated, Lowell, Mass.). In the lower chamber, media alone or media with various cytokines at various concentrations (maximum at 200 ng/ml) was added. After 3 hr at 37° C., cells in the lower chamber were transferred, mixed with 9 ml ZPAK solution and counted on Z2 Coulter Particle Count and Size Analyzer (Beckman Coulter, Fullerton, Calif.).

Assay [1] concerns PKR2/EG-VEGFR2 expression. As to the kind of experiment: Regulation of PKR2/EG-VEGFR2 expression in human bone marrow cells and neutrophils. The assay is classed as cell-based. From the text: Taqman reagents for human PKR1/EG-VEGFR1 and PKR2/EG-VEGFR2 were obtained from Applied Biosystems.
Recombinant human MCP-1, MIP-1α, MIP-1β, MIP-2, bFGF, VEGF, GM-CSF, G-CSF, SDF-1α, M-CSF, Erythropoietin (EPO) and TNFα were purchased from R&D Systems (Minneapolis, Minn.). Recombinant human IL-8, IFNγ, Bv8 (Prokineticin-2), IL-4, IL-10, IL-13, TGF-β were from PeproTech Inc. (Rocky Hill, N.J.). SCF (Stem Cell factor) was from Invitrogen Biosource (Carlsbad, Calif.). In some cases, G-CSF from Amgen (Neupogen/Filgrastim) was used. All cytokines were used at 10 ng/ml. Freshly purified cells were washed and re-suspended in HBSS media containing 0.2% BSA (low endotoxin, Serologicals Corp. Norcross, Ga.). Two million cells were incubated in 24-well plates with various cytokines and chemokines for 4 hr at 37° C. in a 5% CO2 incubator. Cells were then transferred into eppendorf tubes, centrifuged and lysed with RNA lysis buffer (Qiagen, Valencia, Calif.). Bv8 expression was assessed by Taqman with RPL19 (Ribosomal Protein L19) as the internal control gene.

B1: G-CSF: recombinant granulocyte-CSF: mouse or human (R&D Systems) or human Neupogen (Amgen) (protein, chains of the INN, looked up)
chain: MTPLGPASSLPQSFLLKCLEQVRKIQGDGAALQEKLCATYKLCHPEELVLLGHSLGIPWAPLSSCPSQALQLAGCLSQLHSGLFLYQGLLQALEGISPELGPTLDTLQLDVADFATTIWQQMEELGMAPALQPTQGAMPAFASAFQRRAGGVLVASHLQSFLEVSYRVLRHLAQP
Regarding B1, the “stimulation of Bv8 expression in CD11b+Gr1+ cells” value in the assay on Bv8 expression (hypoxic conditions) is listed as about 10 fold. In addition, the “stimulation of Bv8 expression in CD11b+Gr1+ cells” value in the assay with Bv8 expression (normoxic conditions) is reported as about 5 fold. Further, in the assay on Bv8 expression (10 ng/ml, 4 hr), the “Bv8 up-regulation in purified CD11b+Gr1+ cells” value is listed as “over 100 fold” and the “up-regulation of Bv8 in unsorted BMMNCs” value is over 27 fold. Besides, the “increase of Bv8 levels in the BM above background” value in the assay on Bv8 protein levels (24 hours after G-CSF administration) is listed as about 30 fold. Besides, the “serum Bv8 levels” value in the assay on Bv8 protein levels (after G-CSF administration) is listed as “dramatically increased”. Moreover, the “Bv8 levels in kidney, brain and liver” value with Bv8 protein levels (data not shown) is listed as “no effect”. Also, the “time for BM and serum Bv8 to return to near baseline after discontinuing G-CSF” value in the assay on Bv8 protein levels (mouse, in vivo) is at most 48 h. Further, in the assay on human neutrophils, the “concentration required to stimulate neutrophil migration” value was 20 nM. Further, the “regulation of PKR2/EG-VEGFR2 in human bone marrow” value in assay [1] is recorded as “regulate PKR2/EG-VEGFR2 to a significant level”.

For the origin of these results see patent US9284369B2, “Inhibition of angiogenesis” (Genentech, Inc., priority 2007, dated 2016).
